Results on eight molecules are retold here after patent publication US20230406935A1 (F STAR THERAPEUTICS, published 2023).

The target of assay [1] is Human PD-L1 expressed on cells (human, UniProt Q9NZQ7 19-290). In words: cell-based or functional assay.
Assay [2] deals with T1, Monomeric His-tagged human PD-L1 (Acro biosystems PD1-H5229) (human, UniProt Q9NZQ7 19-238).
T1 construct: also called hPD-L1-his; PD-L1-his
In words: off-rate on PD-L1, mock mAb^2; instrument not given.

T1 sequence (Q9NZQ7 19-238 limits assumed): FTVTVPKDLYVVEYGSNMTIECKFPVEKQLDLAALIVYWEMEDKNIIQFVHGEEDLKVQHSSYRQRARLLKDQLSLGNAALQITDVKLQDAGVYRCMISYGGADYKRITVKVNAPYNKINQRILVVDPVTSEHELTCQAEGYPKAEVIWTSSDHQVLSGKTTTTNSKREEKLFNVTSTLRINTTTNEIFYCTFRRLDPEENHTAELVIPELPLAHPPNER
Human PD-L1 expressed on cells, sequence (Q9NZQ7 19-290 limits assumed): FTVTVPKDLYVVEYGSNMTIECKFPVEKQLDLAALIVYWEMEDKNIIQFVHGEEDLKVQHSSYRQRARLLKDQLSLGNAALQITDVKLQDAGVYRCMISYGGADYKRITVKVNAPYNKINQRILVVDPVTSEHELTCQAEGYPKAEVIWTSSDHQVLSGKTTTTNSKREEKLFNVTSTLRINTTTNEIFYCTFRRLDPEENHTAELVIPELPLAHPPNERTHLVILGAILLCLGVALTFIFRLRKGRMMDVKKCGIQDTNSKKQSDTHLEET

B1: FS17-33-157AA/HELD1.3 (bispecific antibody)
chain 1: QVQLQESGPGLVRPSQTLSLTCTVSGSTFSGYGVNWVRQPPGRGLEWIGMIWGDGNTDYNSALKSRVTMLVDTSKNQFSLRLSSVTAADTAVYYCARERDYRLDYWGQGSLVTVSSASTKGPSVFPLAPSSKSTSGGTAALGCLVKDYFPEPVTVSWNSGALTSGVHTFPAVLQSSGLYSLSSVVTVPSSSLGTQTYICNVNHKPSNTKVDKKVEPKSCDKTHTCPPCPAPEAAGGPSVFLFPPKPKDTLMISRTPEVTCVVVDVSHEDPEVKFNWYVDGVEVHNAKTKPREEQYNSTYRVVSVLTVLHQDWLNGKEYKCKVSNKALPAPIEKTISKAKGQPREPQVYTLPPSRDEEGYWVSLTCLVKGFYPSDIAVEWESNGEPQYWAKTTPPVLDSDGSFFLYSKLTVSNWRWQLDDFSCSVMHEALHNHYTQKSLSLSPGK
chain 2: DIQMTQSPASLSASVGETVTITCRASGNIHNYLAWYQQKQGKSPQLLVYNAKTLADGVPSRFSGSGSGTQYSLKINSLQPEDFGSYYCQHFWSTPRTFGGGTKLEIKRTVAAPSVFIFPPSDEQLKSGTASVVCLLNNFYPREAKVQWKVDNALQSGNSQESVTEQDSKDSTYSLSSTLTLSKADYEKHKVYACEVTHQGLSSPVTKSFNRGEC
Take B1: in assay [1], the “DO11.10 EC50” value amounted to 0.481 nM. The koff in assay [2] is 0.000559 s⁻¹.

B2: FS17-33-161AA/HELD1.3 (bispecific antibody)
chain 1: QVQLQESGPGLVRPSQTLSLTCTVSGSTFSGYGVNWVRQPPGRGLEWIGMIWGDGNTDYNSALKSRVTMLVDTSKNQFSLRLSSVTAADTAVYYCARERDYRLDYWGQGSLVTVSSASTKGPSVFPLAPSSKSTSGGTAALGCLVKDYFPEPVTVSWNSGALTSGVHTFPAVLQSSGLYSLSSVVTVPSSSLGTQTYICNVNHKPSNTKVDKKVEPKSCDKTHTCPPCPAPEAAGGPSVFLFPPKPKDTLMISRTPEVTCVVVDVSHEDPEVKFNWYVDGVEVHNAKTKPREEQYNSTYRVVSVLTVLHQDWLNGKEYKCKVSNKALPAPIEKTISKAKGQPREPQVYTLPPSRDELGYWVSLTCLVKGFYPSDIAVEWESNGEPQYWAKTTPPVLDSDGSFFLYSKLTVSNWRWQLDDFSCSVMHEALHNHYTQKSLSLSPGK
chain 2: DIQMTQSPASLSASVGETVTITCRASGNIHNYLAWYQQKQGKSPQLLVYNAKTLADGVPSRFSGSGSGTQYSLKINSLQPEDFGSYYCQHFWSTPRTFGGGTKLEIKRTVAAPSVFIFPPSDEQLKSGTASVVCLLNNFYPREAKVQWKVDNALQSGNSQESVTEQDSKDSTYSLSSTLTLSKADYEKHKVYACEVTHQGLSSPVTKSFNRGEC
B2: in assay [1], the “DO11.10 EC50” value was 0.453 nM. In assay [2], this molecule returned a koff of 0.000578 s⁻¹.

B3: FS17-33-159AA/HELD1.3 (bispecific antibody)
chain 1: QVQLQESGPGLVRPSQTLSLTCTVSGSTFSGYGVNWVRQPPGRGLEWIGMIWGDGNTDYNSALKSRVTMLVDTSKNQFSLRLSSVTAADTAVYYCARERDYRLDYWGQGSLVTVSSASTKGPSVFPLAPSSKSTSGGTAALGCLVKDYFPEPVTVSWNSGALTSGVHTFPAVLQSSGLYSLSSVVTVPSSSLGTQTYICNVNHKPSNTKVDKKVEPKSCDKTHTCPPCPAPEAAGGPSVFLFPPKPKDTLMISRTPEVTCVVVDVSHEDPEVKFNWYVDGVEVHNAKTKPREEQYNSTYRVVSVLTVLHQDWLNGKEYKCKVSNKALPAPIEKTISKAKGQPREPQVYTLPPSRDEHGYWVSLTCLVKGFYPSDIAVEWESNGEPQYWAKTTPPVLDSDGSFFLYSKLTVSNWRWQLDDFSCSVMHEALHNHYTQKSLSLSPGK
chain 2: DIQMTQSPASLSASVGETVTITCRASGNIHNYLAWYQQKQGKSPQLLVYNAKTLADGVPSRFSGSGSGTQYSLKINSLQPEDFGSYYCQHFWSTPRTFGGGTKLEIKRTVAAPSVFIFPPSDEQLKSGTASVVCLLNNFYPREAKVQWKVDNALQSGNSQESVTEQDSKDSTYSLSSTLTLSKADYEKHKVYACEVTHQGLSSPVTKSFNRGEC
In the case of B3, the “DO11.10 EC50” value in assay [1] turned out to be 0.263 nM. The koff in assay [2] worked out at 0.000427 s⁻¹.

B4: FS17-33-235AA/HELD1.3 (bispecific antibody)
chain 1: QVQLQESGPGLVRPSQTLSLTCTVSGSTFSGYGVNWVRQPPGRGLEWIGMIWGDGNTDYNSALKSRVTMLVDTSKNQFSLRLSSVTAADTAVYYCARERDYRLDYWGQGSLVTVSSASTKGPSVFPLAPSSKSTSGGTAALGCLVKDYFPEPVTVSWNSGALTSGVHTFPAVLQSSGLYSLSSVVTVPSSSLGTQTYICNVNHKPSNTKVDKKVEPKSCDKTHTCPPCPAPEAAGGPSVFLFPPKPKDTLMISRTPEVTCVVVDVSHEDPEVKFNWYVDGVEVHNAKTKPREEQYNSTYRVVSVLTVLHQDWLNGKEYKCKVSNKALPAPIEKTISKAKGQPREPQVYTLPPSRDESGYWVSLTCLVKGFYPSDIAVEWESNGEPQYWAKTTPPVLDSDGSFFLYSKLTVSAWRWQLDDFSCSVMHEALHNHYTQKSLSLSPGK
chain 2: DIQMTQSPASLSASVGETVTITCRASGNIHNYLAWYQQKQGKSPQLLVYNAKTLADGVPSRFSGSGSGTQYSLKINSLQPEDFGSYYCQHFWSTPRTFGGGTKLEIKRTVAAPSVFIFPPSDEQLKSGTASVVCLLNNFYPREAKVQWKVDNALQSGNSQESVTEQDSKDSTYSLSSTLTLSKADYEKHKVYACEVTHQGLSSPVTKSFNRGEC
In the case of B4, the “DO11.10 EC50” value in assay [1] is 0.561 nM. In assay [2], the koff came to 0.000709 s⁻¹.

B5: FS17-33-163AA/HELD1.3 (bispecific antibody)
chain 1: QVQLQESGPGLVRPSQTLSLTCTVSGSTFSGYGVNWVRQPPGRGLEWIGMIWGDGNTDYNSALKSRVTMLVDTSKNQFSLRLSSVTAADTAVYYCARERDYRLDYWGQGSLVTVSSASTKGPSVFPLAPSSKSTSGGTAALGCLVKDYFPEPVTVSWNSGALTSGVHTFPAVLQSSGLYSLSSVVTVPSSSLGTQTYICNVNHKPSNTKVDKKVEPKSCDKTHTCPPCPAPEAAGGPSVFLFPPKPKDTLMISRTPEVTCVVVDVSHEDPEVKFNWYVDGVEVHNAKTKPREEQYNSTYRVVSVLTVLHQDWLNGKEYKCKVSNKALPAPIEKTISKAKGQPREPQVYTLPPSRDEFGYWVSLTCLVKGFYPSDIAVEWESNGEPQYWAKTTPPVLDSDGSFFLYSKLTVSNWRWQLDDFSCSVMHEALHNHYTQKSLSLSPGK
chain 2: DIQMTQSPASLSASVGETVTITCRASGNIHNYLAWYQQKQGKSPQLLVYNAKTLADGVPSRFSGSGSGTQYSLKINSLQPEDFGSYYCQHFWSTPRTFGGGTKLEIKRTVAAPSVFIFPPSDEQLKSGTASVVCLLNNFYPREAKVQWKVDNALQSGNSQESVTEQDSKDSTYSLSSTLTLSKADYEKHKVYACEVTHQGLSSPVTKSFNRGEC
On to B5, for which the “DO11.10 EC50” value in assay [1] turned out to be 0.37 nM. In assay [2], this molecule yielded a koff of 0.000372 s⁻¹.

B6: FS17-33-239AA/HELD1.3 (bispecific antibody)
chain 1: QVQLQESGPGLVRPSQTLSLTCTVSGSTFSGYGVNWVRQPPGRGLEWIGMIWGDGNTDYNSALKSRVTMLVDTSKNQFSLRLSSVTAADTAVYYCARERDYRLDYWGQGSLVTVSSASTKGPSVFPLAPSSKSTSGGTAALGCLVKDYFPEPVTVSWNSGALTSGVHTFPAVLQSSGLYSLSSVVTVPSSSLGTQTYICNVNHKPSNTKVDKKVEPKSCDKTHTCPPCPAPEAAGGPSVFLFPPKPKDTLMISRTPEVTCVVVDVSHEDPEVKFNWYVDGVEVHNAKTKPREEQYNSTYRVVSVLTVLHQDWLNGKEYKCKVSNKALPAPIEKTISKAKGQPREPQVYTLPPSRDESGYWVSLTCLVKGFYPSDIAVEWESNGEPQYWAKTTPPVLDSDGSFFLYSKLTVSQWRWQLDDFSCSVMHEALHNHYTQKSLSLSPGK
chain 2: DIQMTQSPASLSASVGETVTITCRASGNIHNYLAWYQQKQGKSPQLLVYNAKTLADGVPSRFSGSGSGTQYSLKINSLQPEDFGSYYCQHFWSTPRTFGGGTKLEIKRTVAAPSVFIFPPSDEQLKSGTASVVCLLNNFYPREAKVQWKVDNALQSGNSQESVTEQDSKDSTYSLSSTLTLSKADYEKHKVYACEVTHQGLSSPVTKSFNRGEC
As for B6, the “DO11.10 EC50” value in assay [1] was 0.588 nM. For the same molecule, the koff in assay [2] worked out at 0.000693 s⁻¹.

B7: FS17-33-166AA/HELD1.3 (bispecific antibody)
chain 1: QVQLQESGPGLVRPSQTLSLTCTVSGSTFSGYGVNWVRQPPGRGLEWIGMIWGDGNTDYNSALKSRVTMLVDTSKNQFSLRLSSVTAADTAVYYCARERDYRLDYWGQGSLVTVSSASTKGPSVFPLAPSSKSTSGGTAALGCLVKDYFPEPVTVSWNSGALTSGVHTFPAVLQSSGLYSLSSVVTVPSSSLGTQTYICNVNHKPSNTKVDKKVEPKSCDKTHTCPPCPAPEAAGGPSVFLFPPKPKDTLMISRTPEVTCVVVDVSHEDPEVKFNWYVDGVEVHNAKTKPREEQYNSTYRVVSVLTVLHQDWLNGKEYKCKVSNKALPAPIEKTISKAKGQPREPQVYTLPPSRDEYGYWVSLTCLVKGFYPSDIAVEWESNGEPQYWAKTTPPVLDSDGSFFLYSKLTVSNWRWQLDDFSCSVMHEALHNHYTQKSLSLSPGK
chain 2: DIQMTQSPASLSASVGETVTITCRASGNIHNYLAWYQQKQGKSPQLLVYNAKTLADGVPSRFSGSGSGTQYSLKINSLQPEDFGSYYCQHFWSTPRTFGGGTKLEIKRTVAAPSVFIFPPSDEQLKSGTASVVCLLNNFYPREAKVQWKVDNALQSGNSQESVTEQDSKDSTYSLSSTLTLSKADYEKHKVYACEVTHQGLSSPVTKSFNRGEC
In the case of B7, the “DO11.10 EC50” value in assay [1] is 0.238 nM. Moreover, the koff in assay [2] amounted to 0.000523 s⁻¹.

B8: FS17-33-241AA/HELD1.3 (bispecific antibody)
chain 1: QVQLQESGPGLVRPSQTLSLTCTVSGSTFSGYGVNWVRQPPGRGLEWIGMIWGDGNTDYNSALKSRVTMLVDTSKNQFSLRLSSVTAADTAVYYCARERDYRLDYWGQGSLVTVSSASTKGPSVFPLAPSSKSTSGGTAALGCLVKDYFPEPVTVSWNSGALTSGVHTFPAVLQSSGLYSLSSVVTVPSSSLGTQTYICNVNHKPSNTKVDKKVEPKSCDKTHTCPPCPAPEAAGGPSVFLFPPKPKDTLMISRTPEVTCVVVDVSHEDPEVKFNWYVDGVEVHNAKTKPREEQYNSTYRVVSVLTVLHQDWLNGKEYKCKVSNKALPAPIEKTISKAKGQPREPQVYTLPPSRDESGYWVSLTCLVKGFYPSDIAVEWESNGEPQYWAKTTPPVLDSDGSFFLYSKLTVSHWRWQLDDFSCSVMHEALHNHYTQKSLSLSPGK
chain 2: DIQMTQSPASLSASVGETVTITCRASGNIHNYLAWYQQKQGKSPQLLVYNAKTLADGVPSRFSGSGSGTQYSLKINSLQPEDFGSYYCQHFWSTPRTFGGGTKLEIKRTVAAPSVFIFPPSDEQLKSGTASVVCLLNNFYPREAKVQWKVDNALQSGNSQESVTEQDSKDSTYSLSSTLTLSKADYEKHKVYACEVTHQGLSSPVTKSFNRGEC
Take B8: the “DO11.10 EC50” value in assay [1] came out at 0.304 nM. The molecule also came in with a koff in assay [2] of 0.000592 s⁻¹.

By koff is commonly meant a measure of how fast the partners let go of each other.
